Results as given in the DeepSol protein solubility set.

Experiment: soluble on expression in E. coli; label from the status in PepcDB or PDB records

Sequence | soluble on expression in E. coli
MSLTSYSYRQSSATSSFGGLGGGSVRFGPGVAFRAPSIHGGSGGRGVSVSSARFVSSSSSGAYGGGYGGVLTASDGLLAGNEKLTMQNLNDRLASYLDKVRALEAANGELEVKIRDWYQKQGPGPSRDYSHYYTTIQDLRDKILGATIENSRIVLQIDNARLAADDFRTKFETEQALRMSVEADINGLRRVLDELTLARTDLEMQIEGLKEELAYLKKNHEEEISTLRGQVGGQVSVEVDSAPGTDLAKILSDMRSQYEVMAEQNRKDAEAWFTSRTEELNREVAGHTEQLQMSRSEVTDLRRTLQGLEIELQSQLSMKAALEDTLAETEARFGAQLAHIQALISGIEAQLGDVRADSERQNQEYQRLMDIKSRLEQEIATYRSLLEGQEDHYNNLSASKEGHHHHHH | not soluble
MGSDKIHHHHHHMYPECAKLPTFLRTVHEDVDAQARSLFTLDQNYMQVDPGPFCGTMATCDFGTGLVVSFEQVNKRVLQVAAVPFGTAQVALILEAGEPTTHNQVGRIRNAGVVMAPGAEARLSAGANTRVCLISIAGEAADHLRSRYNFDPDSLRADIFLDPAETTALRGLVTEAYQRFSSPQADRSFDQASAAAFHEAVLSVTAWTCASSARTQNQHRVAGDCRTTALTAAIRLIDHNLHNPVTVEWLARTLGVSRRSLEQAFGEAFDTSPGRYIKVLRLNSLRQMLRDPSNAEVSIGDLAARCGLWHQGRLASEFRELFGVLPSEARG | not soluble
SGELLGTLSISHDVTEWHKIQQNLRDEMERRKDTEVALAQRDTILQTILDASPDSIGIFNENMVYQACNKPFVNALGISEVSDLIGKRLQDVIPVEMYTRLETSDLHALRQAEPVRYIDKVVSSDGHITWFDVVKSPFKDKA | not soluble
MMEMRVGIVGGGLAGLTAAIALAEKGFDVSIIGPRSTDSNSYLAQAGIALPLLEGDSIRIHVLDTIKAGKYINDEEIVWNVISKSSEAHDFLTSHGVTFTGNELEGGHSYPRIFTIKSETGKHIIPILEKHARELDVNFIRGFVEEIGINNGKLAGVFLQGELLKFDAVVIAAGGFSGLYRFTAGVKNNIGLLIGDVALKGVPLRDMEFVQFHPTGFIGKRTYLITEAVRGAGAKLVTGDGERFVNELETRDIVARAIYMKMLEGKGVFLDARGIENFKDRFPYIYSVLRGEGINPEKDLIPITPVAHYTIGGISVDAFYRTRIKGLYAIGESACNGFHGANRLASNSLLECVVSGLEVARTISREKPKREVNDAPYSFNELGDVDSIREVLWNHAGIVRDEWSLREGLRKLKEIEVDERLKLVAKAVIISALKREESRGAHYRKDYPFMRKEFEHSSFFYPNV | soluble
ADDILNVHRRNAKDPFAVGAVDAPLVITEFSDFECPFCARWSNQTEPTLMEEYVSKGLVRIEWNDLPVNGEHALAAAKAGRAAAAQGKFDEFRKALFEASRNVSGHPNNTLKDFERFARNAGVKDMERFSREAQDSTYDEVLTKAADYAHGLGVSGTPAFVVGTQYISGAQPTEEFIKVIESELKKSPTFSTPSSHQN | not soluble
AIAVQKLENIPALVHLKEKNIISIRVFLQGRSIVGIQLNYNDNEDGQVYGSTAGKEMVARLSKEEHIIGVEGTYNPSALTQIIFTTNQPRQLMVGYHVGNYQYSSYPDDPSLVLKGACVSWRAGGIKSILFLWGSENSSCVKYGHSG | soluble
MGSDKIHHHHHHMFSIKRVIYYQELIRVGSFTKAAKALNISQAFLSQEIARLEIETERKLINRTTRQFSLTPFGQIFADKIQGMIKEHYELEQFVSSYEESTDGALLVGVIPIFNRLAHYNMFNLFQKAYPNIDISFIDGVSTDLLERVRNGEIHLSFSTPFDEYLNDPLFHHTICQIDDIVAVMATSHPLADNKTLSLPQLVKEKLIVPQKGTGEHAAVSESFTRQGINPSYFRECSNMDIIMDLVMNLSGVVFLCSSVAKSLTAYDVAVIPLEEQLKRTFAISYLKRSVNIPMVRLFLDFLQDYSESVR | not soluble
MATAVELALLKQPYFDLNALCKTVFVTYKAGPGLKKIVTVQAQYVDICNKPNVRGTVVSLPGSPGSHNDIKYMRDSFEKHNIRLICVNWPGSEFVTGGMNDTYTNAERNSYAKALMEKLELKKVEKLILLGHSRGGESALQLACTLSDDRSWPLIGAVMLNSPGFVVHRGISIRMGTINTVSFLVKLRWKIVDCILFPVLDWFYNDFVGLRVSDGKVCAAAMLPMQTFAFEEQRASIDEMKKKPWIRMFYAYGSKDFLVDESDSEELAMHFGGDHYIIHSKKESEETIPKIWNSYERGQSYVTANFTEEGHYLHKTYPEFLIQIFGGIFDVKTEKS | not soluble
MGSDKIHHHHHHMKVLLTRPEGRNQSMVDALNERGIEHCVTPLLCVEATPALPPETSHPLANVDMVVCISANAVSFADDTFKANDANVKGWPKVPYFAVGHATWEALQQIDIDALEAPDDCQQTEGLLTLPTLQHIQGKKITIIRGVGGREALAEQLTSRGAQVRYWEVYQRACPPLDGTIITQQWIDLGIDTVVVTSGEVLDNLINLVPKELFAWLRSCHIIVPSNRVEAQAHAFGITQVTNANAANSKAVLNALKL | not soluble
MGSDKIHHHHHHMIPRLELRSITKCYPGTVANDAVSLSILPGEIHAVLGENGAGKSTLMKIIYGAAQADSGEIYCDGRRIEAHNPAISRSLGIEMVYQHFALFESVSVVENIALAVKGTFDLDRLAAEIKTLSARYGMPIDPHRRVHDLSVGERQRVEIVRCLLQSPKLLILDEPTSVLTPQAVVKLFETLRQLASEGCSIVYISHKLDEVQELCDTATVLRNGKVTGTAKPKESTSLELARMMVGSQLPQMHVSPSAPSAKPLLEVRGLSAPARDKYGTELTDVSLEVHGGEIVGLAGVSGNGQAELIALLSGERTHPRAETILIGGRPSGHLNAGERRKLGMAFVPEERLGRGAVPPHALWENAVLTAHRAGLVRNALVDRRRAGEFARHIIERFKVKANGPQASAQSLSGGNLQKFIVGRELTLEPKILLVSQPTWGVDVGAAAFIRQTLVDLSRGGAAVLVVSEELDELFEICDRLLVISNGRVSPPLIRKQTNREEIGLLMTRVGHGETRRSEVALED | not soluble
MGSDKIHHHHHHMLENRVKTKQIFIGGVAIGGDAPISTQSMTFSKTADIESTKNQIDRLKLAGADLVRVAVSNEKDALALKELKKVSPLPLIADIHFHYKFALIAAQSVDAIRINPGNIGSKEKIKAVVDACKEKNIPIRIGVNAGSLEKQFDQKYGPTPKGMVESALYNAKLLEDLDFTNFKISLKASDVIRTIEAYRMLRPLVIYPFHLGVTEAGNLFSSSIKSAMALGGLLMEGIGDTMRVSITGELENEIKVARAILRHSGRLKEGINWISCPTCGRIEANLVDMAIKVEKRLSHIKTPLDISVMGCVVNALGEAKHADMAIAFGNRSGLIIKEGKVIHKLAEKDLFETFVIEVENLAKEREKSLKD | not soluble
MEFHFFGTGSGVPSIERNVSACAVRFLQQRGKQWLFDCGEATQHQILRSSIALGKIERIFITHLHGDHIFGLPGLLGSRSFQGGENPLFLYGPKGIRSFVETALQVSNTHVKYELTIEEFSEPGLLFHEEGFKVETILLDHVMPCYAFKVTEDDRPGELLVDRLKAKGVPPGPLYRKIQQGETVELPTGERLEANAFLGPPKRGRSFVLAGDTRPVKELIPFAKNVNVLIHEATFLDDKKGHAHEYGHSTMADAIQLAKQANVDHLILTHISSRYHDMSDELQKKAQNAFANAVVAHDFYVFHLPLAKGLEHHHHHH | not soluble
MGSDKIHHHHHHMVVIISAHNIATLEYQPMPKISDSGEPVEGVQAVALTLKILEALANARSTVGVTELSKQIGAGKARVYRHLQTLVTLGYALKDEESERYSTGPQLLRLSHTLSYRLDVVEAARLPARKLSDATGLTAVVARVEGDAIVVVHAEYSRADTMRSPRIGTTMQFHYTALGKIALAFGPAELRSRVLNEPLEQLTAYTITDRRDLMKKLEKIQELGWASSANEGMVGFNALAAPITDAHERLVGMICVVGSIKQLPATPPQNYLDALLSTADDISAYFGHVSRMPS | not soluble
MGSDKIHHHHHHMPHHQPCPPASSLSAGPRGGVIMLILKNVTAVQLHPAKVQEGVDIAIENDVIVAIGDALTQRYPDASFKEMHGRIVMPGIVCSHNHFYSGLSRGIMANIAPCPDFISTLKNLWWRLDRALDEESLYYSGLICSLEAIKSGCTSVIDHHASPAYIGGSLSTLRDAFLKVGLRAMTCFETTDRNNGIKELQEGVEENIRFARLIDEAKKATSEPYLVEAHIGAHAPFTVPDAGLEMLREAVKATGRGLHIHAAEDLYDVSYSHHWYGKDLLARLAQFDLIDSKTLVAHGLYLSKDDITLLNQRDAFLVHNARSNMNNHVGYNHHLSDIRNLALGTDGIGSDMFEEMKFAFFKHRDAGGPLWPDSFAKALTNGNELMSRNFGAKFGLLEAGYKADLTICDYNSPTPLLADNIAGHIAFGMGSGSVHSVMVNGVMVYEDRQFNFDCDSIYAQARKAAASMWRRMDALA | not soluble
SNQEKLAKLQAQVRIGGKGTARRKKKVVHRTATADDKKLQSSLKKLAVNNIAGIEEVNMIKDDGTVIHFNNPKVQASLSANTFAITGHAEAKPITEMLPGILSQLGADSLTSLRKLAEQFPRQVLDSKAPKPEDIDEEDDDVPDLVENFDEASKNEAN | soluble
MSLATPSFGNSSPQLTFTHVANFMNDAAADVSAVDAKQLAQIRQFLKANKTNLIESLNTIRQNVTSSGDHNKLRSTIANLLQINVDNDPFFAQSEDLSHAVEFFMSERSSRLHIVYSLLVNPDIDLETYSFIDNDRFNVVGKLISIISSVIQNYDIITASSLAHDYNNDQDMFTIVSLVQLKKFSDLKFILQILQILNLMILNTKVPVDIVNQWFLQYQNQFVEFCRNINSTDKSIDTSSLQLYKFQNFQDLSYLSETLISRISSLFTITTILILGLNTSIAQFDIQSPLYMDTETFDTVNSALENDVATNIVNEDPIFHPMIHYSWSFILYYRRALQSSESFDDSDITKFALFAESHDVLQKLNTLSEILSFDPVYTTVITVFLEFSLNFIPITASTSRVFAKIISKAPEQFIENFLTNDTFEKKLSIIKAKLPLLNEEGHHHHHH | soluble
MRKLKMMLFGASLIMVAGCSSKENALCHPQPKPPAPPAWAMMPPSNSLQLLDETFSVSGTESSETRQHLEHHHHHH | not soluble
GPGSMSANDVQNPPVEDDEVPTLEAADTQQASKPSKRYAKAMAKMGLKPEPNISKVHIRKRAALSFVVNQPEVYRFPGTNTFLIFGEAQLGDTTMQTQEAAARAVSGALVEEVGTAGEETSELAGETPAAAAPSESKQTPDDVEIVEGEFDDKEIAVVMAQGKTDRIGAIRALRNNKGDIVNAIMELTMDPN | not soluble
MGSDKIHHHHHHAAENLPIQNELFSEYFKKLNPTNYNTKMNRELYIFFKQMFNIDIVKDNIDNANFPTFEEVLGLLDLAEQRKEAFRNFGLENLNNRSDSIRFLRQYLILLMAEAIHNTPRTDNKYHKLLVENLLENDLLLDTTFISANYDIHIDNTVTGLRDKNDLPIMLDYGVEFTNFKEELNWRKPKEPLIKLYKIHGSLNWLYCPICNSVTLTPHEGGVMKLIENSSETKCLECGELTEPIIVPPTYFKNMSNIFLSNVWNETEKTLRDTDLLIFCGYSFPEADMHIKYMLKRVQTNRKKPPLKIMVFNNHSQKQRITLKKEEGRYKRFLGEDVIFTDNSFQDFSVNPLRFIKNI | not soluble
SALIAALSVSGLPSNRFTFEGFLPAKPTARRDRLTHLAHEPRTLIFYEASHRIAECLTDLATIFGSMRIAVVARELTKIFETVLDGTLATLQTQVANDENQRKGEFVIIVQGAADQ | not soluble
MGSDKIHHHHHHMPSKISQLVTGQKIEVQLSSSNVPARFYSEFIGAVNERWVIVNMPDARKYNDMRDLLQEKTPVIVRFVLENESGEICAFRSEISYVISHPTKMLFIMWPNQIEHRIIRKGRRFDAFLPASVSGQSVKGEENTFRGHVLDVSESGCRLKHEKPEGKIDELWENGSKIVLKIEQKNNGDLTLKAIVRQVKQVDDQLELGVQFMGNQKDEVNSLFSGSLVDIDELSRLESST | not soluble
